Source: the supplement of paper PMC7877785
± gives the uncertainty stated by the source.

Assay: self-splicing fitness, log relative to wild type (ln ratio); higher = more splicing; Tetrahymena group I intron in knt gene, E. coli kanamycin selection, DiMSum; sequences stand for … in CUCUCU…GGAGGGAAAAGUUAUCAGGCAUGCACCUGGUAGCUAGUCUUUAAACCAAUAGAUUGCAUCGGUUUAAAAGGCAAGACCGUCAAAUUGCGGGAAAGGGGUCAACAGCCGUUCAGUACCAAGUCUCAGGGGAAACUUUGAGAUGGCCUUGCAAAGGGUAUGGUAAUAAGCUGACGGACAUGGUCCUAACCACGCAGCCAAGUCCUAAGUCAACAGAUCUUCUGUUGAUAUGGAUGCAGUUCACAGACUAAAUGUCGGUCGGGGAAGAUGUAUUCUUCUCAUAAGAUAUAGUCGGACCUCUCCUUAAUGGGAGCUAGCGGAUGAAGUGAUGCAACACUGGAGCCGCUGGGAACUAAUUUGUAUGCGAAAGUAUAUUGAUUAGUUUUGGAGUACUCGUGGUCG
Procedure, shortened: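 Fitness was computed with DiMSum as the error-weighted combination of replicate fold changes, kanamycin versus none, each normalised to wild type. The library randomised all eight intron nucleotides of the P1ex region, with the intron placed in the knt kanamycin-resistance gene on pET-22b(+) in E. coli BL21(DE3). Six replicate transformations were grown overnight at 37°C or 30°C on LB agar with or without 25 μg/mL kanamycin, plus 100 μg/mL carbenicillin, 50 μM IPTG and 0.2% rhamnose. Pooled colonies were amplicon-sequenced on an Illumina HiSeq 2500.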

Sequence	self-splicing fitness (ln) (37 °C)	self-splicing fitness (ln) (30 °C)
GGAGAGCAAUAUUACGGGGG	-1.49 ± 0.46	
UGCUAGCAAUAUUACGAUGA	-1.2 ± 0.09	-1 ± 0.1
UUUAAGCAAUAUUACGAAUA	-0.334 ± 0.22	-1.09 ± 0.21
AAUGAGCAAUAUUACGGUCC		-2.47 ± 0.45
UGGCAGCAAUAUUACGAAUU	-2.47 ± 0.22	-3.42 ± 0.21
CAAGAGCAAUAUUACGGACG	0.217 ± 0.093	-0.541 ± 0.074
GCGGAGCAAUAUUACGACGC	-2.45 ± 0.21	
GCUUAGCAAUAUUACGAAUG	-1.33 ± 0.13	-1.79 ± 0.1
CUUAAGCAAUAUUACGAUGC	-2.1 ± 0.33	-3.42 ± 0.35
CGGUAGCAAUAUUACGGGCA	-0.528 ± 0.2	-1.75 ± 0.24
AUUAAGCAAUAUUACGCUUC	-2.03 ± 0.18	-3.05 ± 0.19
AAUGAGCAAUAUUACGGGCG	-3.07 ± 0.47	
CCAUAGCAAUAUUACGUAAC	-2.7 ± 0.29	
UGCGAGCAAUAUUACGUUUU	-3.25 ± 0.24	-5.01 ± 0.45
UGCAAGCAAUAUUACGUAGG	-0.277 ± 0.14	-3.31 ± 0.21
CCGAAGCAAUAUUACGCUCG	-1.53 ± 0.21	-1.57 ± 0.18
UCCCAGCAAUAUUACGGGCU	-1.32 ± 0.087	-1.71 ± 0.066
GAGCAGCAAUAUUACGACCU	0.00279 ± 0.23	-1.22 ± 0.17
UUUGAGCAAUAUUACGCUAG	-1.33 ± 0.23	-2.68 ± 0.37
GAUAAGCAAUAUUACGGGUA	-1.37 ± 0.17	-1.69 ± 0.14
UGAAAGCAAUAUUACGAUAC	-2.8 ± 0.33	-2.87 ± 0.19
UGUAAGCAAUAUUACGUUUA	-1.51 ± 0.14	-0.814 ± 0.16

Sequence	self-splicing fitness (ln) (37 °C)	self-splicing fitness (ln) (30 °C)
UGAAAGCAAUAUUACGAGGC	-2.36 ± 0.21	-3.66 ± 0.28
CCGUAGCAAUAUUACGGGCC	-2.83 ± 0.32	-3.55 ± 0.25
UCGGAGCAAUAUUACGUCCC		-1.39 ± 0.46
GGCAAGCAAUAUUACGCUCC	-1.07 ± 0.36	-2.93 ± 0.44
ACAAAGCAAUAUUACGCGUG	-0.274 ± 0.057	-1.5 ± 0.043
GAUAAGCAAUAUUACGCCCC	-1.43 ± 0.33	-2.27 ± 0.32
UGACAGCAAUAUUACGGCUU	-0.053 ± 0.092	-0.693 ± 0.075
CGAGAGCAAUAUUACGUCUU	-1.39 ± 0.22	-3.66 ± 0.43
GUCUAGCAAUAUUACGAAAG	-2.42 ± 0.39	
GGUAAGCAAUAUUACGUUCA	0.0273 ± 0.12	-0.432 ± 0.081
UAUGAGCAAUAUUACGGAAA		-1.13 ± 0.49
AUCUAGCAAUAUUACGGCCG	-0.562 ± 0.38	-1.43 ± 0.23
CCAAAGCAAUAUUACGUUUG	-1.43 ± 0.086	-2.93 ± 0.089
GUAUAGCAAUAUUACGAACG		-1.91 ± 0.32
GGGGAGCAAUAUUACGUAGU	-1.53 ± 0.37	
CACUAGCAAUAUUACGGUGC	-2.43 ± 0.35	-2.24 ± 0.22
CUCCAGCAAUAUUACGAGGC		-3.02 ± 0.3
UGUGAGCAAUAUUACGGUCU	-2.19 ± 0.2	-3.01 ± 0.17
AGUAAGCAAUAUUACGUUUC	-1.37 ± 0.21	-3.78 ± 0.23
CUGCAGCAAUAUUACGUGUG	-1.27 ± 0.06	-1.65 ± 0.043
UGCAAGCAAUAUUACGCCAA	-0.657 ± 0.19	-1.67 ± 0.34
ACCUAGCAAUAUUACGGCUU	0.252 ± 0.098	-0.695 ± 0.076

Sequence	self-splicing fitness (ln) (37 °C)	self-splicing fitness (ln) (30 °C)
UAAGAGCAAUAUUACGCGUG	-1.88 ± 0.13	-2.33 ± 0.13
GGUGAGCAAUAUUACGGCUG	-0.543 ± 0.21	-1.06 ± 0.15
UUCUAGCAAUAUUACGGAGG		-3.17 ± 0.34
GCUCAGCAAUAUUACGCGAA	-0.98 ± 0.12	-0.998 ± 0.11
CAACAGCAAUAUUACGGCAU	-1.11 ± 0.09	-3.38 ± 0.12
ACUAAGCAAUAUUACGGUGC	-2.02 ± 0.15	-2.36 ± 0.11
GCUCAGCAAUAUUACGCCGG	-0.855 ± 0.17	-2.03 ± 0.15
UGUUAGCAAUAUUACGCGGU		-4.19 ± 0.47
GAGCAGCAAUAUUACGGGAA	-2.05 ± 0.22	-3.18 ± 0.26
CCACAGCAAUAUUACGUGUU	-3.15 ± 0.14	-3.75 ± 0.1
UGAGAGCAAUAUUACGACUA	-1.64 ± 0.21	-1.47 ± 0.22
CUCCAGCAAUAUUACGGCCU	-1.63 ± 0.24	-3.5 ± 0.2
UUCAAGCAAUAUUACGUCCG	-0.121 ± 0.14	-1.33 ± 0.095
UGUCAGCAAUAUUACGGAGA	-0.867 ± 0.091	-1.58 ± 0.1
GGAGAGCAAUAUUACGAGUU		-4 ± 0.35
CAAGAGCAAUAUUACGCUAA	-1.52 ± 0.21	-3.93 ± 0.27
GCAAAGCAAUAUUACGCGAA	-0.599 ± 0.17	-1.55 ± 0.14
AAUUAGCAAUAUUACGGUUG	-0.897 ± 0.13	-2.53 ± 0.13
CGGCAGCAAUAUUACGUAUG	-0.303 ± 0.065	-1.55 ± 0.048
UGACAGCAAUAUUACGCCGU	-1.85 ± 0.15	-2.54 ± 0.14
AUGUAGCAAUAUUACGGGGG	-2.47 ± 0.37	-3.28 ± 0.27
